{"source": "patent US20220396624A1", "about": "(HC BIOPHARMA SHANGHAI, published 2022)", "binders": {"B1": {"name": "murine antibody 13C9 (A3) (antibody, V domains shown)", "VH": "QVQLKQSGAGLVKPGASVKLSCKASGYIFTEYIIHWVKQRSGQGLEWIGWFYPGSDNIKYNEKFKDKATLTADKSSSTVYMELSRLTSEDSAVYFCARHETGYFFDYWGQGTTLTVSS", "VL": "DIVITQSPAIMSASPGEKVTMTCSASSSVSKMNWYQQKSGTSPKRWIYDTSKLASGVPSRFSGSGSGTSYSLTISSMEAEDAATYYCQQWSSNPLTFGSGTKLELKR", "notes": "Mouse hybridoma antibody (subclone 13C9-1), tested as culture supernatant or purified; Only variable domains printed (the VL as printed ends in RA); also called 13C9-1"}, "B2": {"name": "murine antibody 14A7 (A1) (antibody, V domains shown)", "VH": "QVQLKQSGAELVRPGTSVKMSCKATEYTFTNNWIAWVKQRPGHGLEWVGDIHPGGGFTNYNEKFKVKATLTADTSSSTAYMQLRSLTSEDSAIYYCAGSKTRDYDAWFAYWGQGTLVTVSA", "VL": "DIVMTQAPSSLAVSVGEKVTLNCKSSQSLLYTGNQKNYLAWYQQKPGQSPKLLIYWASTRESGVPDRFTGSGSGTDFTLTISNVKAEDLAVYFCQQYYTYRTFGGGTKLEIK", "notes": "Mouse hybridoma antibody (subclone 14A7-4), tested as culture supernatant or purified from it; Only the variable domains are printed; also called 14A7-4"}, "B3": {"name": "humanized antibody 14A7(hz) (antibody, V domains shown)", "VH": "QVQLVQSGAEVKKPGASVKVSCKASEYTFTNNWIAWVRQAPGQGLEWVGDIHPGGGFTNYNEKFKVRATLTADTSTSTAYMELSSLRSEDTAVYYCAGSKTRDYDAWFAYWGQGTTVTVSS", "VL": "DIQMTQSPSTLSASVGDRVTITCKSSQSLLYTGNQKNYLAWYQQKPGKAPKLLIYWASTRESGVPSRFSGSGSGTEFTLTISSLQPDDFATYYCQQYYTYRTFGQGTKVEIKR", "notes": "also called 14A7-4(hz)"}, "B4": {"name": "chimeric antibody 14A7(chi) (antibody, V domains shown)", "VH": "B2 VH", "VL": "DIVMTQAPSSLAVSVGEKVTLNCKSSQSLLYTGNQKNYLAWYQQKPGQSPKLLIYWASTRESGVPDRFTGSGSGTDFTLTISNVKAEDLAVYFCQQYYTYRTFGGGTKLEIKR", "notes": "also called 14A7-4(chi)"}, "B5": {"name": "chimeric antibody 13C9-1(chi) (antibody, V domains shown)", "VH": "B1 VH", "VL": "B1 VL", "notes": "Chimeric antibody of murine 13C9"}, "B6": {"name": "murine antibody 8A2 (A8) (antibody, V domains shown)", "VH": "QVQLKQSGPGLVAPSQSLSITCTVSGFSLTGYGVNWVRQPPGKGLEWLGKIWGDGITDYNSALKSRLSISKDNSKSQVFLKMNSLQTDDTARYYCARDVMDYWGQGTSVTVSS", "VL": "QIVLTQSPAIMSASPGEKVTMTCSASSSISYMHWYQQKPGTSPKRWIYDTSKLASGVPARFSGSESGTSYSLTISSMEAEDAATYYCHHRSPYPTFGAGTKLELK", "notes": "Mouse hybridoma antibody (subclone 8A2-2); Only variable domains printed; also called 8A2-2"}, "B7": {"name": "murine antibody 15G10 (A2) (antibody, V domains shown)", "VH": "QVQLKQSGPELVKPGASVKTSCKASGYTFTNYVVHWVKQNPGQGLEWIGYVNPNNDGTIFNEKFKDKAILTSDKSSSTAYMELSSLTSEDSAVYYCARSPFAHWGQGTLVTVSA", "VL": "QIVLTQSPASLTVSLGQRATISCSASESVDFYGTSLMQWFQQKPGQPPKLLVYTASNVDSEVPARFSGSGSGTDFSLNIHPVEEDDIAMYFCHQTRKVPYTFGGGTKLEIK", "notes": "Mouse hybridoma antibody (subclone 15G10-3), tested as culture supernatant; Only variable domains printed; also called 15G10-3"}, "B8": {"name": "murine antibody 28B1 (A5), subclone 28B1-2 (antibody, V domains shown)", "VH": "QVQLKQSGAELVKPGASVMLSCTASAFNIDDTYIHWVKQRPEQGLEWIGRIDPANGNTDYDPECQGKATITTDMSSNTAYLQLSSLTSEDTAVYFCARGLRLPGLVYWGRGTLVTVSA", "VL": "DIQMTQTTSSLSASLGDRVTISCRASQDISNYLNWYQQKPDGTVKLLIYYTSILYSGVPSRFSGSGSGTDYSLTINTLEEEDIATYFCQQGNTLPWTFGGGTKLEIIR", "notes": "Mouse hybridoma antibody; Only variable domains printed"}, "B9": {"name": "murine antibody 22B10 (A6) (antibody, V domains shown)", "VH": "QVQLKQSGAELVKPGASVELSCTASGFNIEDTYLHWVNQRPEQGLEWIGRIDPANGNTYYDPKFQGKATITTDTSSNTAYLQLSRLTSEDTAVYYCARGLRLPGFPYWGQGTLVTVSA", "VL": "B8 VL with T8P, N34S, Y55H, T74A, N76S, T77N, E79D, E80Q, I107K", "notes": "Mouse hybridoma antibody (subclone 22B10-1); Only variable domains printed; also called 22B10-1"}, "B10": {"name": "murine antibody 18B4 (A4) (antibody, V domains shown)", "VH": "QVQLKQSGPELEKPGASVKISCKASGYSFTGYNMNWVKQSNGKSLEWIGNIDPYYGVTHYNQKFKGKATLTVDESSSTASMQLKSLTSEDSAIYYCARGIPFYGLDYWGQGTSVTVSS", "VL": "B1 VL with D1Q, I4L, S24G, K31F, N33H, S59A, S91N, S92T, L95F, L105I", "notes": "Mouse hybridoma antibody (subclone 18B4-2); Only variable domains printed; also called 18B4-2"}, "B11": {"name": "murine antibody 7E5 (A9) (antibody, V domains shown)", "VH": "B6 VH with I56S, N60T, M82V", "VL": "B6 VL with Y35F, H89Q", "notes": "Mouse hybridoma antibody (subclone 7E5-2); Only variable domains printed; also called 7E5-2"}, "B12": {"name": "murine antibody 28B1 (A5), subclone 28B1-7 (antibody, V domains shown)", "VH": "B8 VH", "VL": "B8 VL"}, "B13": {"name": "murine antibody 2E5 (A10) (antibody, V domains shown)", "VH": "B6 VH with D88E", "VL": "DVLMTQIPLSLPVSLGDQASISCRSSQSIEQSNGNTYLEWYLQKPGQSPKVLIYKVSNRFSGVPDRFSGSGSGTDFTLKISRVESEDLGVYYCFQGSHVPYTFGGGTKLEIK", "notes": "Mouse hybridoma antibody (subclone 2E5-9); Only variable domains printed; also called 2E5-9"}, "B14": {"name": "murine antibody 6G5 (A12) (antibody, V domains shown)", "VH": "B2 VH with V48I, F57Y, V66G, R84S, A106S", "VL": "B1 VL", "notes": "Mouse hybridoma antibody (subclone 6G5-2); Only variable domains printed; the printed VL is identical to that of 13C9; also called 6G5-2"}, "B15": {"name": "murine antibody 10A3 (A11) (antibody, V domains shown)", "VH": "B6 VH with D88E", "VL": "QIVLTQSPAIMSASPGEKVTMTCSASSSINYMHWFQQKPGTSPKRWIYDTSKLASGVPARFSGSESGTSYSLTISSMEAEDAATYYCHHRSPYPTFGAGTKLELKR", "notes": "Mouse hybridoma antibody (subclone 10A3-3); Only variable domains printed; also called 10A3-3"}}, "note": "Changes are numbered by the printed parent chain.", "data": [{"target": "T1, human PD-L1 on 293T-h-PDL1 cells (human, UniProt Q9NZQ7 19-238)", "T1 sequence (Q9NZQ7 19-238)": "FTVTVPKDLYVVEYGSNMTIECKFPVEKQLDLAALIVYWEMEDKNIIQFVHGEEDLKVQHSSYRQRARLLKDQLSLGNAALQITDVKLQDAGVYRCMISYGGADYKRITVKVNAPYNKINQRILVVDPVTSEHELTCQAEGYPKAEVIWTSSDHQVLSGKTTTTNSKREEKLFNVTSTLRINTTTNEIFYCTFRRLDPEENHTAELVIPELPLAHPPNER", "assay": "FACS, purified antibody on 293T-h-PDL1 cells", "units": {"EC50": "µg/mL"}, "procedure": "(§1) Then 100 μl of flow cytometry buffer was added to each flow cytometry tube and resuspension was performed. […] Then 1 ml of flow cytometry buffer was added and centrifuged at 1200 rpm for 5 minutes at room temperature, the supernatant was discarded and the washing was repeated three times. 250 μl of flow cytometry buffer was added to each flow cytometry tube again, the pellet was resuspended and mixed. The resulting samples was detected by the machine.\nControl tube 1 (no antibody and secondary antibody, only cell suspension was added) and control tube 2 (no antibody, only cell suspension and secondary antibody was added) were set.", "values": [{"binder": "B1", "EC50": 0.49}, {"binder": "B2", "EC50": 0.8}, {"binder": "B3", "EC50": 0.77}, {"binder": "B4", "EC50": 1.32}, {"binder": "B5", "EC50": 1.42}]}, {"target": "T1, human PD-L1 on 293T-h-PDL1 cells", "assay": "FACS, hybridoma culture supernatant on 293T-h-PDL1 cells", "units": {"EC50": "µg/mL"}, "procedure": "1 ml of flow cytometry buffer was added to each flow cytometry tube and centrifuged at 1200 rpm for 5 minutes. The supernatant was discarded and the washing was repeated three times. At the same time, both control tube 1 (no culture supernatant and secondary antibody below, only the cell suspension was added) and control tube 2 (no culture supernatant, only cell suspension and secondary antibody below were added) were set.\nas §1", "values": [{"binder": "B1", "EC50": 0.44}, {"binder": "B6", "EC50": 0.336}, {"binder": "B7", "EC50": 1.45}, {"binder": "B2", "EC50": 0.538}, {"binder": "B8", "EC50": 0.39}, {"binder": "B9", "EC50": 0.517}, {"binder": "B10", "EC50": 0.125}]}, {"target": "T2, extracellular region of human PD-L1 protein (positions 19-238 of SEQ ID NO: 3) (human, UniProt Q9NZQ7 19-238)", "T2 construct": "also called Human PD-L1-his; antigen PD-L1", "T2 sequence (Q9NZQ7 19-238)": "as above", "assay": "ForteBio Octet (BLI), antibody immobilized, PD-L1 ECD 6.25-200 nM; culture supernatant", "units": {"Kd": "nM", "koff": "s⁻¹"}, "procedure": "(§2) A 96-well plate was obtained, and 200 μl SD buffer (1×PBS+0.02% Tween20+0.1% BSA) was added to each well, the plate was placed in ForteBio Octet and pre-circulated.", "values": [{"binder": "B1", "Kd": 0.00181, "koff": "6.32e-07"}, {"binder": "B6", "Kd": 2.04, "koff": 0.00034}, {"binder": "B11", "Kd": 0.498, "koff": 0.000172}, {"binder": "B2", "Kd": 0.0557, "koff": "2.78e-05"}, {"binder": "B8", "Kd": 0.00924, "koff": "6.26e-06"}, {"binder": "B9", "Kd": 0.0714, "koff": "4.43e-05"}, {"binder": "B10", "Kd": 0.586, "koff": 0.000662}, {"binder": "B12", "Kd": "< 0.001", "koff": "< 1e-07"}, {"binder": "B13", "Kd": 0.175, "koff": "5.61e-05"}, {"binder": "B14", "Kd": 0.111, "koff": "7.94e-05"}, {"binder": "B15", "Kd": 0.34, "koff": "5.15e-05"}]}, {"target": "T2, extracellular region of human PD-L1 …", "assay": "ForteBio Octet (BLI), antibody 20 nM, PD-L1 ECD from 30 nM in 3-fold dilutions", "units": {"Kd": "nM", "koff": "s⁻¹"}, "procedure": "The murine antibody, chimeric antibody and humanized antibody of the present invention were dissolved in PBS to obtain 20 nM solutions.\nThe affinities of the antibody-antigen were determined using the ForteBio Octet as an affinity detection instrument.", "values": [{"binder": "B2", "Kd": 0.545, "koff": 0.000359}, {"binder": "B3", "Kd": 0.884, "koff": 0.000358}, {"binder": "B4", "Kd": 4.56, "koff": 0.00173}]}, {"target": "T3, fusion protein of the extracellular region of human PD-L1 and human IgG1-FC (human, UniProt Q9NZQ7 19-238)", "T3 construct": "PD-L1 is put first by convention; also called fusion protein PD-L1 (hFC tag)", "T3 sequence (Q9NZQ7 19-238)": "as above", "assay": "FACS blocking of PD-L1-hFc binding to 293T-h-PD1 cells, hybridoma supernatant", "units": {"IC50": "µg/mL"}, "procedure": "(§3) Each well was then washed twice by adding 400 μl FACS buffer, PE anti-human IgG Fc secondary antibody was added and incubated for 1 hour, after which each well was washed twice by adding 400 μl FACS buffer. Detection was performed.", "values": [{"binder": "B1", "IC50": 1.95}, {"binder": "B6", "IC50": 5.17}, {"binder": "B7", "IC50": 4}, {"binder": "B2", "IC50": 2.31}, {"binder": "B8", "IC50": 2.31}, {"binder": "B9", "IC50": 4.31}]}, {"target": "T2, extracellular region of human PD-L1 …", "assay": "ForteBio Octet (BLI), antibody immobilized, PD-L1 ECD 6.25-200 nM; antibody after purification", "units": {"Kd": "nM", "koff": "s⁻¹"}, "procedure": "as §2\nThe antibody was immobilized and the concentration of the antibody after supernatant purification was 10 μg/ml.", "values": [{"binder": "B1", "Kd": 2.78, "koff": 0.00117}, {"binder": "B6", "Kd": 4200, "koff": 0.137}, {"binder": "B11", "Kd": 3930, "koff": 0.11}, {"binder": "B2", "Kd": 0.882, "koff": 0.000647}, {"binder": "B8", "Kd": 0.785, "koff": 0.000785}, {"binder": "B9", "Kd": 0.528, "koff": 0.000481}, {"binder": "B10", "Kd": 936, "koff": 0.191}, {"binder": "B12", "Kd": 0.748, "koff": 0.000723}, {"binder": "B13", "Kd": 15, "koff": 0.00376}, {"binder": "B14", "Kd": 1.07, "koff": 0.000838}, {"binder": "B15", "Kd": 906, "koff": 0.0296}]}, {"target": "T3, fusion protein of the extracellular …", "assay": "FACS blocking of PD-L1-hFc binding to 293T-h-PD1 cells, purified antibody", "units": {"IC50": "µg/mL"}, "procedure": "as §3", "values": [{"binder": "B1", "IC50": 2.38}, {"binder": "B2", "IC50": 2.27}, {"binder": "B3", "IC50": 1.95}, {"binder": "B4", "IC50": 5.66}, {"binder": "B5", "IC50": 2.47}]}]}
